In PMC3131183:

What was measured:
Test in all cases: FRET or BRET
[1] = molecular target: Hck (haemopoietic cell kinase) (human (endogenous in PMNs)) (UniProt P08631)
[2] = molecular target: Gγ subunit (human (endogenous in PMNs)) (UniProt P59768)
[3] = molecular target: β-arrestin-1 (human (endogenous in PMNs)) (UniProt P49407)
Sequence of UniProt P49407 (P49407 whole entry): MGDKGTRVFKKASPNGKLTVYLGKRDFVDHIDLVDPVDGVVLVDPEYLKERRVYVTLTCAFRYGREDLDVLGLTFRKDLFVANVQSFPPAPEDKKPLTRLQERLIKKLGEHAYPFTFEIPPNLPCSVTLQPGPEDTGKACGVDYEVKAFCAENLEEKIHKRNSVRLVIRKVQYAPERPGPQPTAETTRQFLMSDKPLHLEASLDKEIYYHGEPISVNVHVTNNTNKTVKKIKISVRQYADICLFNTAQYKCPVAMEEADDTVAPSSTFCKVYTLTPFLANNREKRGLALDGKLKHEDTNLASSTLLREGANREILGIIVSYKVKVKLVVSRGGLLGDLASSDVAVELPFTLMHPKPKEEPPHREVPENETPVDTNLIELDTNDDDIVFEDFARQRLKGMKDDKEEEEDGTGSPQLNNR

Sequence of UniProt P08631 (P08631 whole entry): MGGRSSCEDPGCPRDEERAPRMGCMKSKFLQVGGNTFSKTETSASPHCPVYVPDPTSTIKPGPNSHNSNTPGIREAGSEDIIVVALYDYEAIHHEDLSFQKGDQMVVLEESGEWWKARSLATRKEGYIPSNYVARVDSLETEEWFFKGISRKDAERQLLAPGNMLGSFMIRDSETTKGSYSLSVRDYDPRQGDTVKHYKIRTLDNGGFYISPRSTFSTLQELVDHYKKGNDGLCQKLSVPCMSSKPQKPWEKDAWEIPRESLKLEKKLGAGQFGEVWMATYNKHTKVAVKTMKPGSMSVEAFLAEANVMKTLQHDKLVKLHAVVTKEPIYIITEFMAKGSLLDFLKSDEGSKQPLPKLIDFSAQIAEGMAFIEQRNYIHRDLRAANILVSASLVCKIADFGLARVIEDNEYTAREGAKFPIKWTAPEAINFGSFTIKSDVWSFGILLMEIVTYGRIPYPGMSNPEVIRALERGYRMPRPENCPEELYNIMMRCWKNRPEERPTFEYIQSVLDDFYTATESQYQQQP

FRET efficiency [1] [%]	FRET efficiency [2] [%]	FRET efficiency [3] [%]	Substance
54	58		Gβ subunit (from UniProt P62873 1-340) (natural protein)
		38	clathrin heavy chain (from UniProt Q00610 1-1675) (natural protein)
